Source: patent publication US20130115220A1 (DAINIPPON SUMITOMO PHARMA, published 2013)

T1: keto acyl synthase (KS) domain of FAS labeled with Flag at the N-terminal (UniProt P19096 1-406, limits assumed)
T1 construct: domain: keto acyl synthase (KS); Subcloned into pFLAG-CMV2 from the full-length FAS cDNA
T1 sequence (looked up): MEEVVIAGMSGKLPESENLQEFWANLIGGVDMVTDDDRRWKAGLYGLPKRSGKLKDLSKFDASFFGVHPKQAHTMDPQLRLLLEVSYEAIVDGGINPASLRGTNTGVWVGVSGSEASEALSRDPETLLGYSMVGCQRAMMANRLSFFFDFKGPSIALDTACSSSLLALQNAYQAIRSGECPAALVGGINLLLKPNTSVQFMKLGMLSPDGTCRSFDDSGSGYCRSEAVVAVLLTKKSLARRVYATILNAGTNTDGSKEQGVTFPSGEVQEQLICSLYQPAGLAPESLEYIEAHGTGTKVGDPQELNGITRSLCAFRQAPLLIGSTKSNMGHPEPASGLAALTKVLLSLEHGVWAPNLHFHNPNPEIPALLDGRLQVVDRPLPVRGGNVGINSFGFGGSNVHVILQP

T2: malonyl/acetyl transferase (MAT) domain of FAS labeled with Flag at the N-terminal (UniProt P19096 429-817, limits assumed)
T2 construct: domain: malonyl/acetyl transferase (MAT); Subcloned into pFLAG-CMV2 from the full-length FAS cDNA
T2 sequence (looked up): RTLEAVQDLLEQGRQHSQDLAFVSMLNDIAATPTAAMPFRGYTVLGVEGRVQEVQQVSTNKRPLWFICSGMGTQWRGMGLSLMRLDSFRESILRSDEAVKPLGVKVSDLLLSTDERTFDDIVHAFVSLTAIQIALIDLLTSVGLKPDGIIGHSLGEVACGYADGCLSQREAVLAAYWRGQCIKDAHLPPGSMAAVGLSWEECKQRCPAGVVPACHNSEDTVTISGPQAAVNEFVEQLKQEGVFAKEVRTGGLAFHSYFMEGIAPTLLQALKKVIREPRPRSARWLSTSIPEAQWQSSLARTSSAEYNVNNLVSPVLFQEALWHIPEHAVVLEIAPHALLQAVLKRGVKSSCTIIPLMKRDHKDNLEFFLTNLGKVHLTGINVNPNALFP

B1: acylcarrier protein (ACP) domain of FAS labeled with Flag at the N-terminal (enzyme, UniProt P19096 2112-2192, looked up, not shown: small tags and cut ends)
chain: HGDGDTQRDLVKAVAHILGIRDLAGINLDSTLADLGLDSLMGVEVRQILEREHDLVLPMREVRQLTLRKLQEMSSKTDSAT
notes: domain: acylcarrier protein (ACP); Subcloned into pFLAG-CMV2 from the full-length FAS cDNA
B2: keto reductase (KR) domain of FAS labeled with Flag at the N-terminal (enzyme, UniProt P19096 1857-2111, looked up, not shown: small tags and cut ends)
chain: VLPGAQPTLISAISKTFCPAHKSYIITGGLGGFGLELARWLVLRGAQRLVLTSRSGIRTGYQAKHIREWRRQGIQVLVSTSNVSSLEGARALIAEATKLGPVGGVFNLAMVLRDAMLENQTPELFQDVNKPKYNGTLNLDRATREACPELDYFVAFSSVSCGRGNAGQTNYGFANSTMERICEQRRHDGLPGLAVQWGAIGDVGIVLEAMGTNDTVIGGTLPQRISSCMEVLDLFLNQPHAVLSSFVLAEKKAVA
notes: domain: keto reductase (KR); Subcloned into pFLAG-CMV2 from the full-length FAS cDNA
B3: recombinant AIM protein (rAIM) of mouse labeled with HA-tag (ligand)
chain: ESPTKVQLVGGAHRCEGRVEVEHNGQWGTVCDDGWDRRDVAVVCRELNCGAVIQTPRGASYQPPASEQRVLIQGVDCNGTEDTLAQCELNYYVFDCSHEEDAGAQCENPDSDLLFIPEDVRLVDGPGHCQGRVEVLHQSQWSTVCKAGWNLQVSKVVCRQLGCGRALLTYGSCNKNTQGKGPIWMGKMSCSGQEANLRSCLLSRLENNCTHGEDTWMECEDPFELKLVGGDTPCSGRLEVLHKGSWGSVCDDNWGEKEDQVVCKQLGCGKSLHPSPKTRKIYGPGAGRIWLDDVNCSGKEQSLEFCRHRLWGYHDCTHKEDVEVICTDFDV
notes: also called rAIM-HA; AIM-HA; not shown: HA-tag

Columns and labels:
Test in all cases: co-immunoprecipitation of Flag-tagged FAS domains with AIM-HA in HEK293T cells
[1] = molecular target: B3
[2] = molecular target: T1, keto acyl synthase (KS) domain of FAS …
[3] = molecular target: T2, malonyl/acetyl transferase (MAT) domain …

Binder: B1
- binding result [1]: no binding

Binder: B2
- binding result [1]: no binding

Binder: B3
- binding result [2]: no binding
- binding result [3]: no binding
